# In article PMC7954794, “Protein context shapes the specificity of SH3 domain-mediated interactions in vivo” (Nature Communications, 2021):
# B1: CYK3 (protein, UniProt Q07533 1-885, looked up)
# Cytokinesis protein 3: MATNLTSLKPPFKVKARYGWSGQTKGDLGFLEGDIMEVTRIAGSWFYGKLLRNKKCSGYFPHNFVILLEERLNSSTENGRQPSKIVESFEKSNKVVIPPVPSRYSDERPRPKKKLSSSMPNSPKKPVDSLTKARKAKSKEMVNEKNIYNTQSSRHHNNSAPNLPLASHSKPQVRNFEESMNNPLPPLPPLPDLDNMRKTDKRAPKKSYSANDLHMARSSREYNYYKDNQKFYDGFIPEKRYSLEEDSISSGLFSNSQYLNDSACSSENSFALMSDFSATSAGSFARHKYAQSFSDSLQRSQNANGCSTKINDSQEFGDSNASSRNGKMGDILRKIIIPKRNTNIYSSSVSSPKSPKAYPKLPDIQNLNLSATPDEARDWIAVKCHLNRARTLTKYDKHPRYMRALEENRDLILHPQDSIYNGLNTNEVKGNTKPGLVDVELAELNIEYIDKMTWKRCIRDGTMTLDSWAQTTFSARYSTVLEKLRGIYIFCTEMFALTDDNGTSDFSAEPQNLEKILYRKHCTPYELTWLFKKLANSLGITCEIVIGFLKTPSAINWEFKYNHCWLRILVNKEWRFIDVILGNVTNPIHEFVNNRKIKKAENSYFLMAPLEMIYTHIPPREFEQHIVPSIDQLSALYLPLVFPSFFKNELKLYKFSTALSFLEDSEIYECSLEIPNDVEVFASVVIPTDNEEASSAYRNMELALTQIKKQKAESGRRIALIKAVLPPNVNKGSLYIHSGVRGTQTSIANIHPLSMMVPLTHKGSNMKYEFVIKIPSESIQKIELYIVEPQSRYLFVGNEYSFEVIQSPSDGIVYSSDEGPNQNRKQPMAIKSPSGRVHELVKSDPHFPYGTWKGSIKIKEPGVWSALVIADSGIGWSVFAEWLCV
# B2: FUS1 (protein, UniProt P11710 1-512, looked up)
# Nuclear fusion protein FUS1: MVATIMQTTTTVLTTVAAMSTTLASNYISSQASSSTSVTTVTTIATSIRSTPSNLLFSNVAAQPKSSSASTIGLSIGLPIGIFCFGLLILLCYFYLKRNSVSISNPPMSATIPREEEYCRRTNWFSRLFWQSKCEDQNSYSNRDIEKYNDTQWTSGDNMSSKIQYKISKPIIPQHILTPKKTVKNPYAWSGKNISLDPKVNEMEEEKVVDAFLYTKPPNIVHIESSMPSYNDLPSQKTVSSKKTALKTSEKWSYESPLSRWFLRGSTYFKDYGLSKTSLKTPTGAPQLKQMKMLSRISKGYFNESDIMPDERSPILEYNNTPLDANDSVNNLGNTTPDSQITSYRNNNIDLITARPHSVIYGTTAQQTLETNFNDHHDCNKSTEKHELIIPTPSKPLKKRKKRRQSKMYQHLQHLSRSKPLPLTPNSKYNGEASVQLGKTYTVIQDYEPRLTDEIRISLGEKVKILATHTDGWCLVEKCNTQKGSIHVSVDDKRYLNEDRGIVPGDCLQEYD
# Test system: Abp1 PPIs
# Experiment: DHFR-PCA of Abp1 SH3-swapped baits (Fig. 2B-D, S2C, S2F);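 on Protein-protein interaction distance between Abp1 SH3-swapped baits, to ABP1: Euclidean distance between DHFR-PCA score profiles of the baits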;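 on Protein-protein interaction distance between Abp1 SH3-swapped baits, to BEM1-2: Euclidean distance between DHFR-PCA score profiles of the baits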;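 on Protein-protein interaction distance between Abp1 SH3-swapped baits, to BOI1: Euclidean distance between DHFR-PCA score profiles of the baits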;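 on Protein-protein interaction distance between Abp1 SH3-swapped baits, to BZZ1-1: Euclidean distance between DHFR-PCA score profiles of the baits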
# Format: cell-based, Saccharomyces cerevisiae
# Details: sheet Fig2C; for Protein-protein interaction distance between Abp1 SH3-swapped baits, to ABP1: Abp1 bait with swapped SH3, distance to bait with ABP1 SH3; for Protein-protein interaction distance between Abp1 SH3-swapped baits, to BBC1: distance to Abp1 bait with BBC1 SH3; for Protein-protein interaction distance between Abp1 SH3-swapped baits, to BEM1-1: distance to Abp1 bait with BEM1-1 SH3; for Protein-protein interaction distance between Abp1 SH3-swapped baits, to BEM1-2: distance to Abp1 bait with BEM1-2 SH3; for Protein-protein interaction distance between Abp1 SH3-swapped baits, to BOI1: distance to Abp1 bait with BOI1 SH3; for Protein-protein interaction distance between Abp1 SH3-swapped baits, to BOI2: distance to Abp1 bait with BOI2 SH3; for Protein-protein interaction distance between Abp1 SH3-swapped baits, to BUD14: distance to Abp1 bait with BUD14 SH3; for Protein-protein interaction distance between Abp1 SH3-swapped baits, to BZZ1-1: distance to Abp1 bait with BZZ1-1 SH3; for Protein-protein interaction distance between Abp1 SH3-swapped baits, to BZZ1-2: distance to Abp1 bait with BZZ1-2 SH3; for Protein-protein interaction distance between Abp1 SH3-swapped baits, to CDC25: distance to Abp1 bait with CDC25 SH3; for Protein-protein interaction distance between Abp1 SH3-swapped baits, to CTTN: distance to Abp1 bait with CTTN SH3; for Protein-protein interaction distance between Abp1 SH3-swapped baits, to CYK3: distance to Abp1 bait with CYK3 SH3; for Protein-protein interaction distance between Abp1 SH3-swapped baits, to DBNL: distance to Abp1 bait with DBNL SH3; for Protein-protein interaction distance between Abp1 SH3-swapped baits, to FUS1: distance to Abp1 bait with FUS1 SH3; for Protein-protein interaction distance between Abp1 SH3-swapped baits, to HCLS1: distance to Abp1 bait with HCLS1 SH3; for Protein-protein interaction distance between Abp1 SH3-swapped baits, to HOF1: distance to Abp1 bait with HOF1 SH3; for Protein-protein interaction distance between Abp1 SH3-swapped baits, to HSE1: distance to Abp1 bait with HSE1 SH3; for Protein-protein interaction distance between Abp1 SH3-swapped baits, to LSB1: distance to Abp1 bait with LSB1 SH3; for Protein-protein interaction distance between Abp1 SH3-swapped baits, to LSB3: distance to Abp1 bait with LSB3 SH3; for Protein-protein interaction distance between Abp1 SH3-swapped baits, to MYO3: distance to Abp1 bait with MYO3 SH3; for Protein-protein interaction distance between Abp1 SH3-swapped baits, to MYO5: distance to Abp1 bait with MYO5 SH3; for Protein-protein interaction distance between Abp1 SH3-swapped baits, to NBP2: distance to Abp1 bait with NBP2 SH3; for Protein-protein interaction distance between Abp1 SH3-swapped baits, to PEX13: distance to Abp1 bait with PEX13 SH3; for Protein-protein interaction distance between Abp1 SH3-swapped baits, to PIN3: distance to Abp1 bait with PIN3 SH3; for Protein-protein interaction distance between Abp1 SH3-swapped baits, to RVS167: distance to Abp1 bait with RVS167 SH3; for Protein-protein interaction distance between Abp1 SH3-swapped baits, to SDC25: distance to Abp1 bait with SDC25 SH3; for Protein-protein interaction distance between Abp1 SH3-swapped baits, to SHO1: distance to Abp1 bait with SHO1 SH3; for Protein-protein interaction distance between Abp1 SH3-swapped baits, to SLA1-1: distance to Abp1 bait with SLA1-1 SH3; for Protein-protein interaction distance between Abp1 SH3-swapped baits, to SLA1-2: distance to Abp1 bait with SLA1-2 SH3; for Protein-protein interaction distance between Abp1 SH3-swapped baits, to SLA1-3: distance to Abp1 bait with SLA1-3 SH3; for Protein-protein interaction distance between Abp1 SH3-swapped baits, to YSC84: distance to Abp1 bait with YSC84 SH3
# In short: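 Yeast DHFR-PCA in which Abp1 baits, carrying their SH3 replaced by CRISPR–Cas9 with one of 27 yeast SH3s or human CTTN, HCLS1 or DBNL SH3s, were mated against 575 SH3-associated DHFR F[3] preys plus 40 negative controls. Four tests were run per PPI. Diploids were selected twice (48 h, 30 °C), then grown 4 days on PCA selection media.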
Molecule,"Protein-protein interaction distance between Abp1 SH3-swapped baits, to ABP1","Protein-protein interaction distance between Abp1 SH3-swapped baits, to BBC1","Protein-protein interaction distance between Abp1 SH3-swapped baits, to BEM1-1","Protein-protein interaction distance between Abp1 SH3-swapped baits, to BEM1-2","Protein-protein interaction distance between Abp1 SH3-swapped baits, to BOI1","Protein-protein interaction distance between Abp1 SH3-swapped baits, to BOI2","Protein-protein interaction distance between Abp1 SH3-swapped baits, to BUD14","Protein-protein interaction distance between Abp1 SH3-swapped baits, to BZZ1-1","Protein-protein interaction distance between Abp1 SH3-swapped baits, to BZZ1-2","Protein-protein interaction distance between Abp1 SH3-swapped baits, to CDC25","Protein-protein interaction distance between Abp1 SH3-swapped baits, to CTTN","Protein-protein interaction distance between Abp1 SH3-swapped baits, to CYK3","Protein-protein interaction distance between Abp1 SH3-swapped baits, to DBNL","Protein-protein interaction distance between Abp1 SH3-swapped baits, to FUS1","Protein-protein interaction distance between Abp1 SH3-swapped baits, to HCLS1","Protein-protein interaction distance between Abp1 SH3-swapped baits, to HOF1","Protein-protein interaction distance between Abp1 SH3-swapped baits, to HSE1","Protein-protein interaction distance between Abp1 SH3-swapped baits, to LSB1","Protein-protein interaction distance between Abp1 SH3-swapped baits, to LSB3","Protein-protein interaction distance between Abp1 SH3-swapped baits, to MYO3",also measured
B1,26.78,25.11,17.6,11.87,21.68,20.06,16.1,26.08,22.45,5.497,21.37,0.00,25.11,14.91,28.59,10.8,25.16,31.53,31.13,30.11,"Protein-protein interaction distance between Abp1 SH3-swapped baits, to MYO5: 29.49; Protein-protein interaction distance between Abp1 SH3-swapped baits, to NBP2: 15.74; Protein-protein interaction distance between Abp1 SH3-swapped baits, to PEX13: 29.86; Protein-protein interaction distance between Abp1 SH3-swapped baits, to PIN3: 28.76; Protein-protein interaction distance between Abp1 SH3-swapped baits, to RVS167: 28.09; Protein-protein interaction distance between Abp1 SH3-swapped baits, to SDC25: 15.21; Protein-protein interaction distance between Abp1 SH3-swapped baits, to SHO1: 24.75; Protein-protein interaction distance between Abp1 SH3-swapped baits, to SLA1-1: 5.436; Protein-protein interaction distance between Abp1 SH3-swapped baits, to SLA1-2: 14.43; Protein-protein interaction distance between Abp1 SH3-swapped baits, to SLA1-3: 31.65; Protein-protein interaction distance between Abp1 SH3-swapped baits, to YSC84: 31.42"
B2,18.44,16.64,8.021,22.67,12.53,10.5,7.121,17.24,12.64,14.2,13.46,14.91,16.42,0.00,20.02,21.29,16.23,23.45,23.48,21.97,"Protein-protein interaction distance between Abp1 SH3-swapped baits, to MYO5: 21.47; Protein-protein interaction distance between Abp1 SH3-swapped baits, to NBP2: 8.037; Protein-protein interaction distance between Abp1 SH3-swapped baits, to PEX13: 21.37; Protein-protein interaction distance between Abp1 SH3-swapped baits, to PIN3: 21.08; Protein-protein interaction distance between Abp1 SH3-swapped baits, to RVS167: 19.5; Protein-protein interaction distance between Abp1 SH3-swapped baits, to SDC25: 24.28; Protein-protein interaction distance between Abp1 SH3-swapped baits, to SHO1: 16.07; Protein-protein interaction distance between Abp1 SH3-swapped baits, to SLA1-1: 17.65; Protein-protein interaction distance between Abp1 SH3-swapped baits, to SLA1-2: 8.845; Protein-protein interaction distance between Abp1 SH3-swapped baits, to SLA1-3: 23.5; Protein-protein interaction distance between Abp1 SH3-swapped baits, to YSC84: 23.88"
